Reference: paper PMC10610913, “Saturation mutagenesis of α-synuclein reveals monomer fold that modulates aggregation” (Science Advances, 2023)

Target: the molecule itself
Experiment: FRET or BRET; HEK293T biosensor cells co-expressing the CFP and the YFP fusion of one aSyn variant, seeded with increasing amounts of sonicated recombinant full-length aSyn(WT) fibrils with Lipofectamine 2000, 48 h, CFP-YFP FRET by flow cytometry, normalized to aSyn(WT) with 100 nM fibrils

B1: aSyn amino acids 35 to 110, CFP/YFP (domain or fragment)
chain: not shown
fold sensitivity of the biosensor against full-length WT aSyn: ≥ 4 fold
